Measured values as given in paper PMC3984077.

Molecular target: HasSCTD, the last 78 residues of the antisigma factor HasS of Serratia marcescens (Serratia marcescens) (UniProt Q79AD3)
Assay: NMR titration; 1H-15N HSQC, one partner 15N-labelled in turn, peak intensities before and after adding the unlabelled partner; 250 µM HasSCTD with 200, 400 or 800 µM signaling domain, or 100 µM 15N signaling domain with 250 µM HasSCTD; control with 400 µM periplasmic domain; sodium phosphate pH 7, 50 mM NaCl, 0.05% Zw, 15% D2O; 20°C

signaling domain of the TonB-dependent outer membrane transporter HasR (from UniProt Q79AD2) (domain or fragment)
reduction of the overall HSQC peak intensity of 15N HasSCTD: 35%
